Assay results as given in US20190233528A1 (published 2019).
Where two headings read alike, the source gives them in different places.

T1: human CD70 expressed on parental (WT) Jurkat cells (human, UniProt P32970 1-193)
T1 sequence: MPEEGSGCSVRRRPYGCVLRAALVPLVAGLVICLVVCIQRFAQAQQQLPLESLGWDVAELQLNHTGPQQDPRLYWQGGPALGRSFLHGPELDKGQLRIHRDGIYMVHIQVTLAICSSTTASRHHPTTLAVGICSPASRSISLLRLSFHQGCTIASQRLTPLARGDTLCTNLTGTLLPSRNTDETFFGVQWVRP

T2: recombinant biotinylated human CD70 protein (human, UniProt P32970 39-193, biotinylated (site not stated))
T2 construct: also called recombinant biotinylated hCD70 protein
T2 sequence: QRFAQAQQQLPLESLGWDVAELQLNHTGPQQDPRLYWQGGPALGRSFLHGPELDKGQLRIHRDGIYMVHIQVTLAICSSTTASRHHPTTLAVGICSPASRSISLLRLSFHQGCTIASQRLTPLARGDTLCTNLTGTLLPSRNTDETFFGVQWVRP


Key:
[1] = target: T1, human CD70 expressed on parental (WT) …; assay: cell-based or functional assay
[2] = target: T2, recombinant biotinylated human CD70 …; assay: flow cytometry: CAR-transduced Jurkat cells incubated with recombinant biotinylated human CD70, streptavidin-PE; percent of cells binding
Procedure: (§1) On Day 5, transduced cells were stained with human anti-CD69 antibody conjugated to PE-Cy7 and acquired on a flow cytometer to obtain percentage of CD69+ population for each CAR. […] Activation ratios (WT activation/KO activation) and protein binding were used to rank CARs.
Activation ratio and protein binding of hybridoma CARs were determined in the Jurkat screen and used for in vitro characterization of CARs. Activation ratio was determined by calculating the ratio of the percentage of CD69 expression on WT Jurkat cells transduced with CD70 CAR (WT) to that on CD70 knockout Jurkat cells transduced with CD70 CAR (KO). A higher activation ratio indicates target-dependent activation. […] Protein binding values indicate the percentage of CD3+ CAR T cells that bind to human CD70 protein.

[3] = target: T1, human CD70 expressed on parental (WT) …; assay: cell-based or functional assay; remark: listed apart in the source
[4] = target: T2, recombinant biotinylated human CD70 …; assay: flow cytometry: CAR-transduced Jurkat cells incubated with recombinant biotinylated human CD70, streptavidin-PE; percent of cells binding; remark: listed apart in the source
Procedure: as §1
Table 7: Activation ratio and protein binding of phage CARs were determined in the Jurkat screen. Activation ratio was used for in vitro characterization of CARs. Activation ratio was determined by calculating the ratio of the percentage of CD69 expression on WT Jurkat cells transduced with CD70 CAR (WT) to that on CD70 knockout Jurkat cells transduced with CD70 CAR (KO). A higher activation ratio indicates target-dependent activation. […] Protein binding values indicate the percentage of CD3+ CAR T cells that bind to human CD70 protein.

Activation ratio (WT/KO) [1]	Protein binding (%) [2] [%]	Activation ratio (WT/KO) [3]	Protein binding (%) [4] [%]	Binder
2.09				40E3 CD70-specific CAR (other) QVQLQESGPGLVKPSETLSLTCTVSGGSISSYYWNWIRQPPGKGLEWIGYIYYSGSTNYNPSLKSRVTISVDTSKNQFSLKLRSVTAADTAVYYCARDIRTWGQGTLVTVSSGGGGSGGGGSGGGGSGGGGSDIQMTQSPSSLSASVGDRVTITCRASQGISNYLAWFQQKPGKAPKSLIYAASSLQSGVPSKFSGSGSGTDFTLTISSLQPEDFATYYCQQYNSYPLTFGGGTKVEIKTTTPAPRPPTPAPTIASQPLSLRPEACRPAAGGAVHTRGLDFACDIYIWAPLAGTCGVLLLSLVITLYCKRGRKKLLYIFKQPFMRPVQTTQEEDGCSCRFPEEEEGGCELRVKFSRSADAPAYQQGQNQLYNELNLGRREEYDVLDKRRGRDPEMGGKPRRKNPQEGLYNELQKDKMAEAYSEIGMKGERRRGKGHDGLYQGLSTATKDTYDALHMQALPPR
6.84	37.6			17G6 CD70-specific CAR (other, Chimeric antigen receptor on transduced Jurkat cells; the signal peptide is left out) EVQLVESGGGLVQPGGSLRLSCVASGFTFSSYWMSWVRQAPGKGLEWVASIKQDGSEKYYVDSVKGRFTISRDNAKNSVYLQMNSLRAEDTGVYYCAREGVNWGWRLYWHFDLWGRGTLVTVSSGGGGSGGGGSGGGGSGGGGSDIVMTQSPDSLAVSLGERATINCKSSQSVLYSYNNKNYVAWYQQKPGQPPNLLIFWASTRESGVPDRFSGSGSGTDFTLTISSLQAEDVAVYYCQQYYSTLTFGGGTKVEIKTTTPAPRPPTPAPTIASQPLSLRPEACRPAAGGAVHTRGLDFACDIYIWAPLAGTCGVLLLSLVITLYCKRGRKKLLYIFKQPFMRPVQTTQEEDGCSCRFPEEEEGGCELRVKFSRSADAPAYQQGQNQLYNELNLGRREEYDVLDKRRGRDPEMGGKPRRKNPQEGLYNELQKDKMAEAYSEIGMKGERRRGKGHDGLYQGLSTATKDTYDALHMQALPPR
		12	2.39	P12F02 CD70-specific CAR (other, Chimeric antigen receptor on transduced Jurkat cells; the signal peptide is left out) EVQLLESGGGLVQPGGSLRLSCAASGFTFSSYAMSWVRQAPGKGLEWVSTISGTGGTTYYADSVKGRFTISRDNSKNTLYLQMNSLRAEDTAVYYCAKVRAGIDPTASDVWGQGTLVTVSSGGGGSGGGGSGGGGSGGGGSELQSVLTQPPSASGTPGQRVTISCSGSTSNIGRNYVYWYQQLPGTAPKLLIYRTNQRPSGVPDRFSGSKSGTSASLAISGLRSEDEADYYCAAWDDSLSGRVFGTGTKLTVLTTTPAPRPPTPAPTIASQPLSLRPEACRPAAGGAVHTRGLDFACDIYIWAPLAGTCGVLLLSLVITLYCKRGRKKLLYIFKQPFMRPVQTTQEEDGCSCRFPEEEEGGCELRVKFSRSADAPAYQQGQNQLYNELNLGRREEYDVLDKRRGRDPEMGGKPRRKNPQEGLYNELQKDKMAEAYSEIGMKGERRRGKGHDGLYQGLSTATKDTYDALHMQALPPR
7.32	17.9			10H10 CD70-specific CAR (other, Chimeric antigen receptor on transduced Jurkat cells; the signal peptide is left out) EVQLVESGGGLVQPGGSLRLSCAVSGFTFSNHNIHWVRQAPGKGLEWISYISRSSSTIYYADSVKGRFTISRDNAKNSLYLQMNSLRDEDTAVYYCARDHAQWYGMDVWGQGTTVTVSSGGGGSGGGGSGGGGSGGGGSDIQMTQSPSSVSASVGDRVTITCRASQGISSWLAWYQQKPGKAPKVLIYAASSLQSGVPSRFSGSGSGTDFTLTISSLQPEDFATYYCQQAFSFPFTFGPGTKVDIKTTTPAPRPPTPAPTIASQPLSLRPEACRPAAGGAVHTRGLDFACDIYIWAPLAGTCGVLLLSLVITLYCKRGRKKLLYIFKQPFMRPVQTTQEEDGCSCRFPEEEEGGCELRVKFSRSADAPAYQQGQNQLYNELNLGRREEYDVLDKRRGRDPEMGGKPRRKNPQEGLYNELQKDKMAEAYSEIGMKGERRRGKGHDGLYQGLSTATKDTYDALHMQALPPR
		11.6	15.5	P12G07 CD70-specific CAR (other, Chimeric antigen receptor on transduced Jurkat cells; the signal peptide is left out) EVQLLESGGGLVQPGGSLRLSCAASGFTFNNFAMSWVRQAPGKGLEWVSGISGSGDNTYYADSVKGRFTISRDNSKNTLYLQMNSLRAEDTAVYYCAKDRDIGLGWYSYYLDVWGQGTLVTVSSGGGGSGGGGSGGGGSGGGGSELQSVLTQPPSASGTPGQRVTISCSGSSSNIGSNYVYWYQQLPGTAPKPLIYMNNQRPSGVPDRFSGSKSGTSASLAISGLRSEDEADYYCAAWDDSLSAVVFGTGTKLTVLTTTPAPRPPTPAPTIASQPLSLRPEACRPAAGGAVHTRGLDFACDIYIWAPLAGTCGVLLLSLVITLYCKRGRKKLLYIFKQPFMRPVQTTQEEDGCSCRFPEEEEGGCELRVKFSRSADAPAYQQGQNQLYNELNLGRREEYDVLDKRRGRDPEMGGKPRRKNPQEGLYNELQKDKMAEAYSEIGMKGERRRGKGHDGLYQGLSTATKDTYDALHMQALPPR
		4.32	37.5	P13F04 CD70-specific CAR (other, Chimeric antigen receptor on transduced Jurkat cells; the signal peptide is left out) QVQLVQSGAEVKKPGSSVKVSCKASGGTFSSYAISWVRQAPGQGLEWMGEIIPIFGTASYAQKFQGRVTITADESTSTAYMELSSLRSEDTAVYYCARAGWDDSWFDYWGQGTLVTVSSGGGGSGGGGSGGGGSGGGGSELQSVLTQPPSASGTPGQRVTISCSGSNSNIGTNYVSWYQQLPGTAPKLLIYRSSRRPSGVPDRFSGSKSGTSASLAISGLRSEDEADYYCAAWDGSLSGHWVFGTGTKLTVLTTTPAPRPPTPAPTIASQPLSLRPEACRPAAGGAVHTRGLDFACDIYIWAPLAGTCGVLLLSLVITLYCKRGRKKLLYIFKQPFMRPVQTTQEEDGCSCRFPEEEEGGCELRVKFSRSADAPAYQQGQNQLYNELNLGRREEYDVLDKRRGRDPEMGGKPRRKNPQEGLYNELQKDKMAEAYSEIGMKGERRRGKGHDGLYQGLSTATKDTYDALHMQALPPR
		2.6	62	P15D02 CD70-specific CAR (other, Chimeric antigen receptor on transduced Jurkat cells; the signal peptide is left out) EVQLVQSGAEVKKPGESLKISCKGSGYSFASYWIGWVRQMPGKGLEWMGVIYPGTSETRYSPSFQGQVTISADKSISTAYLQWSSLKASDTAMYYCAKGLSASASGYSFQYWGQGTLVTVSSGGGGSGGGGSGGGGSGGGGSELDIQMTQSPSSLSASVGDRVTITCRASQSIDTYLNWYQQKPGKAPKLLIYSASSLHSGVPSRFSGSGSGTDFTLTISSLQPEDFATYYCQQSYSTTAWTFGQGTKVEIKTTTPAPRPPTPAPTIASQPLSLRPEACRPAAGGAVHTRGLDFACDIYIWAPLAGTCGVLLLSLVITLYCKRGRKKLLYIFKQPFMRPVQTTQEEDGCSCRFPEEEEGGCELRVKFSRSADAPAYQQGQNQLYNELNLGRREEYDVLDKRRGRDPEMGGKPRRKNPQEGLYNELQKDKMAEAYSEIGMKGERRRGKGHDGLYQGLSTATKDTYDALHMQALPPR
3.89	6.24			64F9 CD70-specific CAR (other, Chimeric antigen receptor on transduced Jurkat cells; the signal peptide is left out) EVQLLESGGGLVQPGESLRLSCEVSGFTFTSYAMSWVRQVPGKGLEWVSIISGVAFTTYYADSVKGRFTISRDHSKNTLYLQMNGLRAEDTAVYYCVKVDGEVYWGQGTLVTVSSGGGGSGGGGSGGGGSGGGGSDIQMTQSPSSLSASVGDRVTITCQASQDISNYLNWYQQKPGKAPKILIYGASNLETGVPSRFSGSGSGTDFTFAISSLQPEDVATYYCQQYDNFPITFGQGTRLEIKTTTPAPRPPTPAPTIASQPLSLRPEACRPAAGGAVHTRGLDFACDIYIWAPLAGTCGVLLLSLVITLYCKRGRKKLLYIFKQPFMRPVQTTQEEDGCSCRFPEEEEGGCELRVKFSRSADAPAYQQGQNQLYNELNLGRREEYDVLDKRRGRDPEMGGKPRRKNPQEGLYNELQKDKMAEAYSEIGMKGERRRGKGHDGLYQGLSTATKDTYDALHMQALPPR
		2.26	70.8	P16C05 CD70-specific CAR (other, Chimeric antigen receptor on transduced Jurkat cells; the signal peptide is left out) EVQLVQSGAEVKKPGESLKISCKGSGYSFTDYWIGWVRQMPGKGLEWMGMISPGGSTTIYRPSFQGQVTISADKSISTAYLQWSSLKASDTAMYYCAREMYTGGYGGSWYFDYWGQGTLVTVSSGGGGSGGGGSGGGGSGGGGSELDIQMTQSPSSLSASVGDRVTITCRASQSIGQSLNWYQQKPGKAPKLLIYGASSLQSGVPSRFSGSGSGTDFTLTISSLQPEDFATYYCQQSYSTPITFGQGTKVEIKTTTPAPRPPTPAPTIASQPLSLRPEACRPAAGGAVHTRGLDFACDIYIWAPLAGTCGVLLLSLVITLYCKRGRKKLLYIFKQPFMRPVQTTQEEDGCSCRFPEEEEGGCELRVKFSRSADAPAYQQGQNQLYNELNLGRREEYDVLDKRRGRDPEMGGKPRRKNPQEGLYNELQKDKMAEAYSEIGMKGERRRGKGHDGLYQGLSTATKDTYDALHMQALPPR
